Reference: US20210214449A1 (ZOETIS SERVICES, published 2021)
Residue numbers refer to the chain shown, from its start. Like-named read-outs stand apart in the source and are kept apart here.

What was measured:
canine NGF [1] = target: T1, canine NGF (canine, UniProt Q29074 110-229 (pig entry), limits assumed); experiment: cell-based or functional assay
T1 chain: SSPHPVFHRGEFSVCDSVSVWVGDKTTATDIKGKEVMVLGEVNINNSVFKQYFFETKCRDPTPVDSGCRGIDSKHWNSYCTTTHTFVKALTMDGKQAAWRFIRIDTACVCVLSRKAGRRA

canine NGF [2] = target: T1, canine NGF; experiment: cell-based or functional assay
canine NGF [3] = target: T1, canine NGF; experiment: cell-based or functional assay
human NGF (human) = human NGF (human) (UniProt P01138); experiment: SPR (Biacore T200), 100 nM mAb on NGF chip, vs parent mAb
rat NGF (rat) = rat NGF (rat) (UniProt P25427); experiment: as above
Sequence of rat NGF (rat) (P25427 122-241 limits assumed): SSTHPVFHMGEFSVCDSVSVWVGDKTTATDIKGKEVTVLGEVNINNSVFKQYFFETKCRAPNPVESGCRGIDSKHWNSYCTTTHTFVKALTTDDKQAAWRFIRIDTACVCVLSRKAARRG

Sequence of human NGF (human) (P01138 other isoform, or with tags, fused parts or gaps limits assumed): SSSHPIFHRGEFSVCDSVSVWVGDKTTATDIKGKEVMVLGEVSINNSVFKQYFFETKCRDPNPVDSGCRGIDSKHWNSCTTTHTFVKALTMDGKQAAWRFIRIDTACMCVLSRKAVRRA

B1: ZTS-842 (antibody, V domains shown)
VH: EVQLVESGGDLVKPGGSLRLSCVASGFTFSTYGINWVRQAPGKGLQWVAYISSGGSSTYYADPVKGRFTISRDDAKNMLYLQMNSLRAEDTAIYYCAGSRYTYAYGGGYEFHFWGQGTLVTVSS
VL: QAVLNQPASVSGALGQKVTISCSGSTMDIDIFGVSWYQQLPGKAPKLLVDSDGDRPSGIPDRFSGSRSGNSGTLTITGLQAEDEADYHCQSGDSTLGALAIFGGGTHVTVL
- IC50 (read off the curve), canine NGF-induced TF-1 cell proliferation (canine NGF [1]): ~5 ng/mL
- IC50 (read off the curve), canine NGF-induced pERK-1/2 in caTrkA-CHO cells (canine NGF [2]): ~0.1 µg/ml

B2: fel48L2 1.1 (antibody, V domains shown)
VH: B1 VH with E1D, S21T, D74N, S85N, R87K, A88T, I93T
VL: QAVLNQPSSVSGALGQRVTISCSGSTMDIDIFGVSWYQQIPGMAPKTIIDSDGDRPSGVPDRFSGSKSGSTGTLTITGLQAEDEADYYCQSGDSTLGALAIFGGGTHVTVLG
- IC50 (read off the curve), canine NGF-induced TF-1 cell proliferation (canine NGF [3]): ~7 ng/mL

B3: can9L12VH_K98A (antibody, V domains shown)
VH: EVQLVESGGDLVKPGGSLRLSCVASGFTFSSHGMHWVRQSPGKGLQWVAVINSGGSSTYYTDAVKGRFTISRDNAKNTVYLQMNSLRAEDTAMYYCAAESVGGWEQLVGPHFDYWGQGTLVIVSS
VL: QSVLTQPTSVSGSLGQRVTISCSGSTNNIGILGASWYQLFPGKAPKLLVYGNGNRPSGVPDRFSGADSGDSVTLTITGLQAEDEADYYCQSFDTTLGAHVFGGGTHLTVL
- Percent Similarity Score (%) (human NGF (human)): 8.58%
- Percent Similarity Score (%) (rat NGF (rat)): 7.92%

B4: ZTS-841 (antibody, V domains shown)
VH: B3 VH with A98K
VL: B3 VL
- IC50 (read off the curve), canine NGF-induced TF-1 cell proliferation (canine NGF [1]): ~8 ng/mL
- IC50 (read off the curve), canine NGF-induced pERK-1/2 in caTrkA-CHO cells (canine NGF [2]): ~0.2 µg/ml

B5: can9L12VH_V101A (antibody, V domains shown)
VH: B3 VH with A98K, V101A
VL: B3 VL
- Percent Similarity Score (%) (human NGF (human)): 5.29%

B6: can9L12VH_F112A (antibody, V domains shown)
VH: B3 VH with A98K, F112A
VL: B3 VL
- Percent Similarity Score (%) (human NGF (human)): 8%

B7: can9L12VH_W104A (antibody, V domains shown)
VH: B3 VH with A98K, W104A
VL: B3 VL
- Percent Similarity Score (%) (rat NGF (rat)): 8.2%
